The numbers were not newly measured in article PMC11187271, which cites them from elsewhere.

The target of the data set is Galectin-1 (Homo sapiens) (UniProt P09382).
Chain of UniProt P09382 (P09382 2-135): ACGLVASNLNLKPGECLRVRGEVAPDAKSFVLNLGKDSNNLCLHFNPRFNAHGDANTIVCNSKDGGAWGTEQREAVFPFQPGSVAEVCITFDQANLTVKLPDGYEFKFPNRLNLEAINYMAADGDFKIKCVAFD

As usually defined, the Kd is the constant that tells how readily two partners part at equilibrium. As to Thymosin alpha-1 (from UniProt P06454), the Kd was 46 µM.
